Experimental data from patent US20140221613A1.
Residue numbers refer to the chain shown, from its start. “And” between values parts separate entries of the source, which are not always exact repeats. Identical values can stand only once. Each block holds one binder with its values, some of them ahead of it.

Legend:
human immunoglobulin IgG [1] = target: human immunoglobulin IgG
human immunoglobulin IgG [2] = target: human immunoglobulin IgG; remark: listed apart in the source
[3] = target: IgG1 type humanized monoclonal antibody
[4] = target: IgG1 type humanized monoclonal antibody; remark: listed apart in the source
[5] = target: IgG1 type humanized monoclonal antibody; remark: listed apart in the source
[6] = target: IgG1 type humanized monoclonal antibody; assay: SPR, IgG1 antibody immobilised, pH 7.4
[7] = target: Fc region of human immunoglobulin (human); assay: pH 4.5
[8] = target: Fc region of human immunoglobulin (human); assay: pH 7.4
[9] = target: Fc region of human immunoglobulin (human); assay: SPR, Fc immobilised, weakly acidic region
[10] = target: Fc region of human immunoglobulin (human); assay: SPR, Fc immobilised, neutral region

B2: OXADac-PG13 (designed binder)
chain: MGAGTPVTAPLAGTIWKVLASEGQTVAAGEVLLILEAMKMETEIRAAQAGTVRGIAVKAGDAVAVGDTLMTLAGSGSDLYDDDDKGIITSLYKKAGSAAAPFTDTYKLILNGKTLKGETTTEAVDAATAEKVFKQYANEHGVHGEWTYDPETKTFTVTE
Ratio of the remaining amount of antibody by SPR sensor gram at pH 4.0 (human immunoglobulin IgG [1]): 64% | koff (human immunoglobulin IgG [1]): 0.06 s⁻¹

B3: OXADac-PG07 (designed binder)
chain: B2 chain with H143D
Ratio of the remaining amount of antibody by SPR sensor gram at pH 4.0 (human immunoglobulin IgG [1]): 93% | koff (human immunoglobulin IgG [1]): 0.00011 s⁻¹

B9: CGB19H-5D (designed binder)
chain: MAYYDPETGTWYSGGRDTYKLILNGKTLKGETTTEAVDAATAEKVFKHYANEHGVHGHWTYDPETKTFTVTERPEVIDASELTPAVDTYKLILNGKTLKGETTTEAVDAATAEKVFKHYANEHGVHGHWTYDPETKTFTVTERPEVIDASELTPAVDTYKLILNGKTLKGETTTEAVDAATAEKVFKHYANEHGVHGHWTYDPETKTFTVTERPEVIDASELTPAVDTYKLILNGKTLKGETTTEAVDAATAEKVFKHYANEHGVHGHWTYDPETKTFTVTERPEVIDASELTPAVDTYKLILNGKTLKGETTTEAVDAATAEKVFKHYANEHGVHGHWTYDPETKTFTVTERPEVIDASELTPAVGGGGSGGGGSGGGGSGGGGCHHHHHH
Dissociation Rate of Antibody at an acidic pH, pH2 (30s) later [3]: 63.4% and 81.8% | Dissociation Rate of Antibody at an acidic pH, pH5 (30s) later [3]: 5.6% and 2.1% | Binding Rate of Antibody after Running Buffer for 10 min (Binding portion) [4]: 65.2% and 82.7%

B10: CGB19H-4D (designed binder)
chain: MAYYDPETGTWYSGGRDTYKLILNGKTLKGETTTEAVDAATAEKVFKHYANEHGVHGHWTYDPETKTFTVTERPEVIDASELTPAVDTYKLILNGKTLKGETTTEAVDAATAEKVFKHYANEHGVHGHWTYDPETKTFTVTERPEVIDASELTPAVDTYKLILNGKTLKGETTTEAVDAATAEKVFKHYANEHGVHGHWTYDPETKTFTVTERPEVIDASELTPAVDTYKLILNGKTLKGETTTEAVDAATAEKVFKHYANEHGVHGHWTYDPETKTFTVTERPEVIDASELTPAVGGGGSGGGGSGGGGSGGGGCHHHHHH
Dissociation Rate of Antibody at an acidic pH, pH2 (30s) later [3]: 55.6% and 76.3% | Dissociation Rate of Antibody at an acidic pH, pH3 (30s) later [3]: 34.6% and 18.6% | Dissociation Rate of Antibody at an acidic pH, pH5 (30s) later [3]: 6.9% and 3.7% | Binding Rate of Antibody after Running Buffer for 10 min (Binding portion) [4]: 59.4% and 77.8%

B11: CGB19H-3D (designed binder)
chain: MAYYDPETGTWYSGGRDTYKLILNGKTLKGETTTEAVDAATAEKVFKHYANEHGVHGHWTYDPETKTFTVTERPEVIDASELTPAVDTYKLILNGKTLKGETTTEAVDAATAEKVFKHYANEHGVHGHWTYDPETKTFTVTERPEVIDASELTPAVDTYKLILNGKTLKGETTTEAVDAATAEKVFKHYANEHGVHGHWTYDPETKTFTVTERPEVIDASELTPAVGGGGCHHHHHH
Kd [5]: 0.1 nM | Dissociation Rate of Antibody at an acidic pH, pH2 (30s) later [3]: 51.2% and 67.4% | Dissociation Rate of Antibody at an acidic pH, pH3 (30s) later [3]: 36.2% and 29.9% | Dissociation Rate of Antibody at an acidic pH, pH5 (30s) later [3]: 6.4% and 4.6% | Binding Rate of Antibody after Running Buffer for 10 min (Binding portion) [4]: 62.5% and 69.6% | fold avidity improvement against M-PG19 [6]: 190 fold | fold difference of the dissociation rate constant against M-PG19 [6]: 370 times

B12: CGB19H-1D (designed binder)
chain: MAYYDPETGTWYSGGRDTYKLILNGKTLKGETTTEAVDAATAEKVFKHYANEHGVHGHWTYDPETKTFTVTERPEVIDASELTPAVGGGGSGGGGSGGGGSGGGGCHHHHHH
Dissociation Rate of Antibody at an acidic pH, pH2 (30s) later [3]: 52.7% | Dissociation Rate of Antibody at an acidic pH, pH3 (30s) later [3]: 35.1% | Dissociation Rate of Antibody at an acidic pH, pH5 (30s) later [3]: 7.1% | Binding Rate of Antibody after Running Buffer for 10 min (Binding portion) [4]: 52.6%

B13: M-PG07 (designed binder)
chain: MDTYKLILNGKTLKGETTTEAVDAATAEKVFKQYANEHGVDGEWTYDPETKTFTVTE
Kd [7]: 230 nM | Kd [8]: 290 nM

B14: M-PG19 (designed binder)
chain: B13 chain with Q33H, D41H, E43H
fold of affinity in the acidic region against M-PG01 [9]: 0.6 times | Kd [5]: 19 nM | fold of avidity in the neutral region against M-PG01 [10]: 11 times | Kd [7]: 1000 nM | Kd [8]: 43 nM

More lines, now with the values ahead:

Ratio of the remaining amount of antibody by SPR sensor gram at pH 4.0 (human immunoglobulin IgG [1]): 71% | koff (human immunoglobulin IgG [1]): 0.04 s⁻¹
B1: OXADac-PG14 (designed binder)
chain: B2 chain with H143D, E145H

increase of the dissociation rate constant against the wild-type (human immunoglobulin IgG [2]): 1000 fold | percent of adsorbed IgG dissociated at pH 4.0 (human immunoglobulin IgG [2]): 60% | Ratio of the remaining amount of antibody by SPR sensor gram at pH 4.0 (human immunoglobulin IgG [1]): 38% | koff (human immunoglobulin IgG [1]): 0.27 s⁻¹
B4: OXADac-PG19 (designed binder)
chain: B2 chain with Q135H, E145H

Ratio of the remaining amount of antibody by SPR sensor gram at pH 4.0 (human immunoglobulin IgG [1]): 94% | koff (human immunoglobulin IgG [1]): 0.00013 s⁻¹
B5: OXADac-PG16 (designed binder)
chain: B2 chain with T120I, H143D

Ratio of the remaining amount of antibody by SPR sensor gram at pH 4.0 (human immunoglobulin IgG [1]): 90% | koff (human immunoglobulin IgG [1]): 0.00044 s⁻¹
B6: OXADac-PG15 (designed binder)
chain: B2 chain with T114R, H143D

Ratio of the remaining amount of antibody by SPR sensor gram at pH 4.0 (human immunoglobulin IgG [1]): 58%
B7: OXADac-PG20 (designed binder)
chain: B2 chain with D125H, Q135H, E145H

Ratio of the remaining amount of antibody by SPR sensor gram at pH 4.0 (human immunoglobulin IgG [1]): 86% | koff (human immunoglobulin IgG [1]): 0.032 s⁻¹
B8: OXADac-PG17 (designed binder)
chain: B2 chain with T114R, T120I, H143D
